For assay [1], the target named is PD-L1 (human) (UniProt Q9NZQ7). Put plainly: flow cytometry, CHO cells expressing huPD-L1. (In general: Flow cytometry measures light scatter and fluorescence of single cells or particles in a stream.)
Assay [2] has as its target CD28 (human) (UniProt P10747). Put plainly: flow cytometry, Jurkat/IL2 reporter cells (endogenous CD28).
Assay [3] has as its target human CTLA-4 (human) (UniProt P16410). As to the kind of experiment: flow cytometry, CHO cells expressing huCTLA4.
The target of assay [4] is CD28 (human) (UniProt P10747). As to the kind of experiment: flow cytometry, Jurkat cells (CD28).
Assay [5] concerns the target human CTLA-4 (human) (UniProt P16410). As to the kind of experiment: flow cytometry, CHO cells expressing CTLA4.
Assay [6] addresses PD-L1 (human) (UniProt Q9NZQ7). As to the kind of experiment: flow cytometry, CHO cells expressing PD-L1.
Assay [7] deals with PD-L1 (human) (UniProt Q9NZQ7). Put plainly: flow cytometry, MFI on PD-L1 over MFI on CD28.
The target in assay [8] is PD-L1 (human) (UniProt Q9NZQ7). Put plainly: flow cytometry, CHO cells expressing huPD-L1. This is another data set of the same source.
The target of assay [9] is human CTLA-4 (human) (UniProt P16410). As to the kind of experiment: flow cytometry, CHO cells expressing huCTLA-4.
The target in assay [10] is CD28 (human) (UniProt P10747). As to the kind of experiment: flow cytometry, Jurkat/IL2 reporter cells (CD28).
In assay [11] the target is CD28 (human) (UniProt P10747).
For assay [12], the target named is PD-L1 (human) (UniProt Q9NZQ7).
The target in assay [13] is CD28 (human) (UniProt P10747). The source holds these as a separate data set.
Assay [14] has as its target PD-L1 (human) (UniProt Q9NZQ7). The source holds these as a separate data set.

Sequence of human CTLA-4 (human) (P16410 36-223): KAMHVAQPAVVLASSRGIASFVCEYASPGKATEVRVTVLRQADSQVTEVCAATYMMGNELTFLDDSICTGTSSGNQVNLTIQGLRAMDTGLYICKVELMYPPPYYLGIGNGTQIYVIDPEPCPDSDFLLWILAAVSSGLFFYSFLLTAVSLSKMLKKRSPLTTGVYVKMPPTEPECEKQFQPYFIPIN
Sequence of PD-L1 (human) (Q9NZQ7 19-290): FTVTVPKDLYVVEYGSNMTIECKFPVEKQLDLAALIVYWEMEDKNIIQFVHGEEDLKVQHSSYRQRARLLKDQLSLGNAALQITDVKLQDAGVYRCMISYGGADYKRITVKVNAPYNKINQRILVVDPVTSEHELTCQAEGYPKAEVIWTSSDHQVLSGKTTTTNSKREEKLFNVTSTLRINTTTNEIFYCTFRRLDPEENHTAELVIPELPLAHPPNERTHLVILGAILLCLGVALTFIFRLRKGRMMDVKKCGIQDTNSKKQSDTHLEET

As to “variant CD80 IgV-Fc Q33R/E35D/K37E/M47V/L85Q (Fc fusion)”, the values for the MFI at 33.3 nM in the assay with PD-L1 (human) [1] and in the assay with CD28 (human) [2] were 44400 MFI and 258 MFI, respectively.
On to “variant CD80 IgV-Fc Q33L/E35D/M47V (Fc fusion)”, for which the MFI at 33.3 nM with PD-L1 (human) [1] amounted to 47900 MFI; with human CTLA-4 (human) [3], 47600 MFI.
As to “CD80 H18Y/E35D/V68M/L85M/R94Q IgV-Fc (Fc fusion)”, the Fold change to WT CD80 with CD28 (human) [4] stood at 0.4 fold; with human CTLA-4 (human) [5] it was 11.3 fold; with PD-L1 (human) [6], 280 fold. Moreover, the MFI at 33.3 nM with CD28 (human) [4] was 14 MFI; with human CTLA-4 (human) [5] it was 19800 MFI; in the assay with PD-L1 (human) [6], 14400 MFI. For the same substance, the Ratio of PDL1:CD28 in the assay with PD-L1 (human) [7] was 1040.
With “variant CD80 IgV-Fc E35D/M47L/L85Q (Fc fusion)”, the MFI at 33.3 nM with PD-L1 (human) [1] is 33200 MFI; in the assay with human CTLA-4 (human) [3], 336000 MFI; with PD-L1 (human) [8], 6100 MFI; with human CTLA-4 (human) [9] it was 12900 MFI; with CD28 (human) [10], 46.3 MFI; with CD28 (human) [2], 646 MFI.
For “CD80 H18Y/E35D/D46E/M47I/V68M/R94L IgV-Fc (Fc fusion)”, the Fold change to WT CD80 with CD28 (human) [4] came out at 7.8 fold; with human CTLA-4 (human) [5], 13.3 fold; with PD-L1 (human) [6], 365 fold. For the same substance, the values for the MFI at 33.3 nM with CD28 (human) [4], in the assay with human CTLA-4 (human) [5] and with PD-L1 (human) [6] were 244 MFI, 23300 MFI and 18800 MFI, respectively. Further, the Ratio of PDL1:CD28 with PD-L1 (human) [7] worked out at 77.1.
Regarding “variant CD80 IgV-Fc Q33L/E35D/M47V/T79A (Fc fusion)”, the MFI at 33.3 nM amounted to 62100 MFI in the assay with PD-L1 (human) [1] and 28900 MFI in the assay with human CTLA-4 (human) [3].
For the substance “CD80 T13R/Q33R/E35D/M38I/M47L/V68M/L85M IgV-Fc (Fc fusion)”, the Fold change to WT CD80 was determined as 0.5 fold with CD28 (human) [4], 12.6 fold with human CTLA-4 (human) [5] and 21.5 fold with PD-L1 (human) [6]. Further, the MFI at 33.3 nM with CD28 (human) [4] was found to be 14.2 MFI; with human CTLA-4 (human) [5], 22000 MFI; with PD-L1 (human) [6] it was 1110 MFI. For the same substance, the Ratio of PDL1:CD28 with PD-L1 (human) [7] turned out to be 77.9.
With “CD80 H18Y/V22D/E35D/M47V/N48K/V68M IgV-Fc (Fc fusion)”, the Fold change to WT CD80 in the assay with CD28 (human) [4] came out at 8.2 fold; in the assay with human CTLA-4 (human) [5] it was 9 fold; with PD-L1 (human) [6] it was 250 fold. Moreover, the values for the MFI at 33.3 nM in the assay with CD28 (human) [4], with human CTLA-4 (human) [5] and with PD-L1 (human) [6] were 257 MFI, 15800 MFI and 12900 MFI, respectively. For the same substance, the Ratio of PDL1:CD28 with PD-L1 (human) [7] is 50.1.
As to “variant CD80 IgV-Fc E35D/M47I/K54R/L85E (Fc fusion)”, the MFI at 33.3 nM with PD-L1 (human) [1] was 36900 MFI; in the assay with human CTLA-4 (human) [3], 8660 MFI.
Consider “CD80 E24D/E35D/M47L/V68M/E95V/L97Q IgV-Fc (Fc fusion)”, for which the Fold change to WT CD80 with CD28 (human) [4] turned out to be 0.5 fold; with human CTLA-4 (human) [5], 8.8 fold; with PD-L1 (human) [6], 362 fold. Besides, the results for the MFI at 33.3 nM with CD28 (human) [4], with human CTLA-4 (human) [5] and with PD-L1 (human) [6] were 15 MFI, 15500 MFI and 18600 MFI, respectively. Further, the Ratio of PDL1:CD28 with PD-L1 (human) [7] worked out at 1270.
With “variant CD80 IgV-Fc E24D/Q33L/E35D/M47V/K54R/L85Q (Fc fusion)”, the MFI at 33.3 nM in the assay with PD-L1 (human) [1] was 67100 MFI; with human CTLA-4 (human) [3] it was 311000 MFI.
As to “CD80 E35D/M47I IgV-Fc (inert) (Fc fusion)”, the Jurkat/IL2 reporter RLU at 50 nM, CHO/OKT3/PD-L1 aAPC with CD28 (human) [11] and with PD-L1 (human) [12] was 3780 RLU throughout. Also, the Jurkat/IL2 reporter RLU at 50 nM, CHO/OKT3 aAPC without PD-L1 in the assay with CD28 (human) [11] was 894 RLU. The IL-2 release, primary T cells + K562/OKT3/PD-L1, 100 nM with CD28 (human) [13] and in the assay with PD-L1 (human) [14] was 8310 in each case.
Turning to “variant CD80 IgV-Fc E35D/M47V/T62A/A71G/V83A/Y87H/L97M (Fc fusion)”, the MFI at 33.3 nM with PD-L1 (human) [1] was found to be 77500 MFI; with human CTLA-4 (human) [3], 18100 MFI; with CD28 (human) [2], 305 MFI.
For “variant CD80 IgV-Fc Q27H/E35D/M47L/L85Q/R94Q/E95K (Fc fusion)”, the MFI at 33.3 nM in the assay with PD-L1 (human) [1] turned out to be 36100 MFI; in the assay with CD28 (human) [2], 282 MFI.
